Reference: US20200002406A1 (Janssen / Centocor, published 2020)

B1: CR14011 (antibody, V domains shown)
VH: EVQLVETGGGVVQPGRSLRLSCSVSGFSFTTYAMHWVRQAPGKGLEWVAIISDDATKKYYADSVKGRFTISRDNSRNTLILQMNSLRAEDTGVYYCAKDGDPGYDSRYYYYYGMDVWGQGTTVTVSS
VL: SYVLTQPPSVSVAPGKTARITCGGNNIGSKSVHWYQQKPGQAPVLVIYYDSDRPSGIPERFSGSNSGNTATLTISRVEAGDEADYYCQVWDSSSDHPVFGGGTKLTVL
notes: also called sc14-011; anti-NA IgG
B2: CR14017 (antibody, V domains shown)
VH: EVQLVETGGGVVQPGRSLRLSCAASGFTFNTHAMHWVRQAPGKGLEWLAVISYDGNIKYYADSVKGRFTISRDSSKNTLYLLMNSLRAEDTAIYYCARDRGDYNYLPSDYWGQGTLVTVSS
VL: not shown
notes: also called sc14-017; anti-NA IgG
B3: CR14012 (antibody, V domains shown)
VH: QVQLQESGGGVVQPGRSLRLSCAASGFSFSTYGMHWVRQAPGKGLEWVAVISYDGSNKYYADSVKGRFTISRDNAKNTLYLQMNSLRAEDTAVYYCGRDSGYTTNWYPGGYWGQGTLVTVSS
VL: not shown
notes: also called sc14-012; anti-NA IgG

Experiments:
[1] = target: T1, neuraminidase (NA) of influenza B virus B/Malaysia/2506/2004 (Victoria lineage) (Influenza B virus B/Malaysia/2506/2004); assay: cell-based or functional assay
[2] = target: neuraminidase (NA) of influenza A virus H1N1 strain A/New Caledonia/20/1999 (Influenza A virus A/New …); assay: cell-based or functional assay
[3] = target: neuraminidase (NA) of influenza A virus H3N2 strain A/Perth/16/2009 (Influenza A virus A/Perth/16/2009 (H3N2)); assay: cell-based or functional assay
[4] = target: T2, neuraminidase (NA) of influenza B virus B/Florida/04/2006 (Yamagata lineage) (Influenza B virus B/Florida/04/2006); assay: cell-based or functional assay
[5] = target: T1, neuraminidase (NA) of influenza B virus …; assay: cell-based or functional assay; remark: listed apart in the source
[6] = target: T2, neuraminidase (NA) of influenza B virus …; assay: cell-based or functional assay; remark: listed apart in the source
[7] = target: T3, neuraminidase (NA) of influenza A virus H5N1 A/Hong Kong/156/97 (Influenza A virus A/Hong Kong/156/97 …, UniProt Q9W7Y7 1-450); assay: flow cytometry on 293-F cells transfected with NA
T3 construct: also called A/Hong Kong/156/97 (H5N1); NA of influenza virus A N1 subtype
T3 sequence (Q9W7Y7 whole entry): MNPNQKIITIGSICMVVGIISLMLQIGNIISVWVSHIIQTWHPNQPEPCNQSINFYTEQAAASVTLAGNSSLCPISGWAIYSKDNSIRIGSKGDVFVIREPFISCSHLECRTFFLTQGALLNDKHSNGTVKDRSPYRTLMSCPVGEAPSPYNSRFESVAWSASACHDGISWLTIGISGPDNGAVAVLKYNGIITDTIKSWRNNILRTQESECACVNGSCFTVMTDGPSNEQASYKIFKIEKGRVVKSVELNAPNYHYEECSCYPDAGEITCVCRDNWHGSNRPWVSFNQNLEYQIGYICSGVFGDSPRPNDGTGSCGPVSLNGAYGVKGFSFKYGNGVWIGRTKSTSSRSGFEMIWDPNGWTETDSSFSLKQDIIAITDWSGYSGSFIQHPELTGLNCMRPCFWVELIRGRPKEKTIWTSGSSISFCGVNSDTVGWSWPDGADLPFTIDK

[8] = target: human FcγRIIIa receptor (FcγRIIIa V158) (human, UniProt P08637 17-254); assay: cell-based or functional assay
Sequence of human FcγRIIIa receptor (FcγRIIIa V158) (P08637 17-254 F176V limits assumed): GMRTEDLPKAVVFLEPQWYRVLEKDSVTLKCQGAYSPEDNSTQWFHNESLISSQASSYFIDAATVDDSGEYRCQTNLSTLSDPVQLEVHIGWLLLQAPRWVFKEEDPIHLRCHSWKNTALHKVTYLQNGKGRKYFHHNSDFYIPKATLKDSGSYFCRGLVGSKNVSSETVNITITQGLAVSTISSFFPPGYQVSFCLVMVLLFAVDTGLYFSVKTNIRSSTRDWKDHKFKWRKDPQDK

Binder | Neuraminidase inhibition activity, EC50 (NA-XTD assay, whole virus) [1] [µg/mL] | Neuraminidase inhibition activity, EC50 (NA-XTD assay, whole virus) [2] [µg/mL] | Neuraminidase inhibition activity, EC50 (NA-XTD assay, whole virus) [3] [µg/mL] | Neuraminidase inhibition activity, EC50 (NA-XTD assay, whole virus) [4] [µg/mL] | Virus neutralization assay (VNA) on MDCK-SIAT1 cells, IC50 [5] [µg/mL] | Virus neutralization assay (VNA) on MDCK-SIAT1 cells, IC50 [6] [µg/mL] | MFI [7] [mfi] | ADCC Reporter Bioassay EC50; A549 target cells infected with B/Lee/1940 [8] [µg/mL]
B1 | 0.013 | > 50 | > 50 | 0.004 | 1.19 | 2.21 | < 250 | 
B2 |  |  |  |  |  |  | < 250 | 0.08
B3 |  |  |  |  |  |  | < 250 | 
